From patent publication US20220389106A1 (University of Texas, published 2022)

T1: recombinant hu-EphA10 Fc chimera protein [the extracellular domain (Glu34-Ala565)] (human, UniProt Q5JZY3 34-565)
T1 construct: range 34-565; Purified from 293T cells; also called hu-EphA10 Fc protein; not shown: Fc part of the chimera
T1 sequence (looked up): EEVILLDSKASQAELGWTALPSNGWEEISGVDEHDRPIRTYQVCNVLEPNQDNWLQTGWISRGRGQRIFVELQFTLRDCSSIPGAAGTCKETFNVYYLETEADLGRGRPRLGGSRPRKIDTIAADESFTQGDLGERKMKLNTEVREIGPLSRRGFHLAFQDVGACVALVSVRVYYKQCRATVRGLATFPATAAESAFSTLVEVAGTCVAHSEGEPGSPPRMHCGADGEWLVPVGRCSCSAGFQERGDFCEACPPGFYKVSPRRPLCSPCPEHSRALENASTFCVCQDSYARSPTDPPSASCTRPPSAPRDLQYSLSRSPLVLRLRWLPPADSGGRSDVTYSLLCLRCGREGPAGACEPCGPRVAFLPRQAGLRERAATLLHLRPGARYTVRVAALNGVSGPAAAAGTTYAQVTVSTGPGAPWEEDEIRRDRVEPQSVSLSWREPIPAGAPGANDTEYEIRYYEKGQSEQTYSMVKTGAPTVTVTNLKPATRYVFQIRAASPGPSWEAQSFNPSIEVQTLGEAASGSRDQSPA

B1: anti-hu-EphA10 antibody Clone 8 (antibody, IgG1, V domains shown)
VH: QVQLQQSGPELVKPGPLVKISCKASGYTFTSYDITWVKQRPGQGLEWIGWIYPGDGSTKYNEKFKGKATLTADKSSSTAYMQLSSLTSENSAVYFCARGGRLPYFDYWGQGTTLTVSS
VL: NIVLTQSPASLAVSLGQRATISCRASESVDSYGNSFMHWYQQKPGQPPKLLIYLASNLESAVPARFSGSGSRTDFTLTIDPVEADDAATYYCQQNNEYPWTFGGGTKLEIK
B2: anti-hu-EphA10 antibody Clone 9 (antibody, IgG1, V domains shown)
VH: QVQLQQSGAELMKPGASVKISCKATGYTFSTYWIEWVKQRPGHGLEWIGEILPGSGRTNYKEKFKDKATFTANTSSTTAYMQLSSLTSEDSAVYYCAIDWYWGQGTTLTVSS
VL: QIVLTQSPAIMSASPGEKVTITCSASSSVSYMYWFQQKPGTSPKLWIYSTSNLASGVPARFSGSGSGTSYSLTISRMEAEDAATYYCQQRNSYPPTFGGGTKLEIK
notes: also called anti-EphA10 (clone 9); anti-EphA10 (clone 9)-pHrodo
B3: anti-hu-EphA10 antibody Clone 4 (antibody, IgG1, V domains shown)
VH: EVKLEESGGGLVQPGGSMKLSCVASGFTFSYYWMNWVRQSPEKGLEWVAEIRLKSNNYATHYAESVKGRFTISRDDSKSSVYLQMNNLRAEDSGIYYCTFYYGSSAWFAYWGQGTLVTVSA
VL: DIQMTQSPASLSASVGETVTITCRASENIYSYLAWYQQKQGKSPQLLVYNVKTLTEGVPSRFSGSGSGTQFSLKIDSLQPEDFGSYYCQHHYVTPPTFGAGTKLELK

molecular target: T1, recombinant hu-EphA10 Fc chimera …; assay: ELISA screening (FIG. 1C)

binding result	Binder
binds	B1
binds	B2
binds	B3
